This note sets out measurements from the supplement of paper PMC10724198.

Data set [1] deals with Saccharomyces cerevisiae. Briefly: protein stability index of tFT-peptide fusion (C-terminal peptide) (PSI (0-1 scale)); higher = more stable (slower turnover). How it is done:
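MPS profiling in S. cerevisiae of the tFT-X12 degron library: putative degron peptides plus stable controls, 12 aa, fused to the C-terminus of a sfGFP-mCherry timer. Cells are FACS-sorted into 8 mCherry/sfGFP bins and deep-sequenced. PSI runs from 0 (unstable) to 1 (stable). Backgrounds are wild type, das1Δ and doa10Δ at 30 °C, and wild type, das1Δ, cdc34-1 and cdc53-1 at 37 °C; 2-3 technical replicates each.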

The subject of data set [2] is Saccharomyces cerevisiae. The data set is described as above. The note with it: genetic background: wild type; temperature: 30 C.
[3] abbreviates: genetic background: cdc34-1, temperature: 37 C.
[4] abbreviates: genetic background: cdc53-1, temperature: 37 C.
Setting [5] is: genetic background: das1 deletion, temperature: 30 C.
[6] abbreviates: genetic background: das1 deletion, temperature: 37 C.
[7] abbreviates: genetic background: doa10 deletion, temperature: 30 C.
Where [8] appears, read: genetic background: wild type, temperature: 30 C.
Setting [9] is: genetic background: wild type, temperature: 37 C.

± gives the standard deviation of the averaged measurements.
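Note: PSI is a weighted mean of sequencing reads over stability bins, variants kept only with over 10 reads, mCherry proximal and sfGFP distal, peptide attached via GGGS linker.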

Take RASLPSLFRSLL: the protein stability index in data set [1] (setting [3]) is 0.951 ± 0.014; in data set [1] (setting [4]), 0.913 ± 0.048; in data set [1] (setting [5]) it was 0.804 ± 0.047; in data set [1] (setting [6]), 0.879 ± 0.019; in data set [1] (setting [7]), 0.8152 ± 0.008; in data set [1] (setting [8]), 0.807 ± 0.022. In addition, the protein stability index in data set [1] (setting [9]) came to 0.897 ± 0.011; in data set [2] it was 0.811 ± 0.073.

Consider RAVLRFVMVWVL, for which the protein stability index in data set [1] (setting [3]) was found to be 0.499 ± 0.042; in data set [1] (setting [4]) it was 0.611 ± 0.024; in data set [1] (setting [5]) it was 0.466 ± 0.02; in data set [1] (setting [6]) it was 0.5789 ± 0.003; in data set [1] (setting [7]), 0.253 ± 0.024; in data set [1] (setting [8]) it was 0.244 ± 0.051. Besides, the results for the protein stability index in data set [1] (setting [9]) and in data set [2] were 0.434 ± 0.022 and 0.317 ± 0.0068, respectively.

With RCTLFVNPVCVH, the protein stability index in data set [1] (setting [3]) amounted to 0.251 ± 0.018; in data set [1] (setting [4]), 0.304 ± 0.008; in data set [1] (setting [5]) it was 0.242 ± 0.034; in data set [1] (setting [6]), 0.402 ± 0.025; in data set [1] (setting [7]), 0.197 ± 0.011; in data set [1] (setting [8]), 0.241 ± 0.015. In addition, the protein stability index in data set [1] (setting [9]) was found to be 0.345 ± 0.017; in data set [2] it was 0.349 ± 0.014.

In the case of RGFIFFALWSFC, the protein stability index was 0.458 ± 0.0091 in data set [1] (setting [3]); 0.544 ± 0.021 in data set [1] (setting [4]); 0.375 ± 0.031 in data set [1] (setting [5]); 0.5317 ± 0.0053 in data set [1] (setting [6]); 0.334 ± 0.021 in data set [1] (setting [7]); 0.35 ± 0.016 in data set [1] (setting [8]). The results for the protein stability index in data set [1] (setting [9]) and in data set [2] were 0.498 ± 0.022 and 0.384 ± 0.08, respectively.

Turning to RGFVVFCIPCFV, the protein stability index was found to be 0.301 ± 0.042 in data set [1] (setting [3]); 0.326 ± 0.021 in data set [1] (setting [4]); 0.259 ± 0.042 in data set [1] (setting [5]); 0.428 ± 0.033 in data set [1] (setting [6]); 0.204 ± 0.0051 in data set [1] (setting [7]); 0.243 ± 0.03 in data set [1] (setting [8]). For the same sequence, the results for the protein stability index in data set [1] (setting [9]) and in data set [2] were 0.401 ± 0.038 and 0.3392 ± 0.002, respectively.

Consider RGKVVRGLLFCA, for which the protein stability index in data set [1] (setting [3]) is 0.619 ± 0.058; in data set [1] (setting [4]), 0.7188 ± 0.0062; in data set [1] (setting [5]), 0.624 ± 0.031; in data set [1] (setting [6]) it was 0.7327 ± 0.0057; in data set [1] (setting [7]), 0.137 ± 0.012; in data set [1] (setting [8]) it was 0.151 ± 0.0035. Further, the values for the protein stability index in data set [1] (setting [9]) and in data set [2] were 0.318 ± 0.077 and 0.3 ± 0.12, respectively.

Turning to RGPAYATCHLLC, the protein stability index turned out to be 0.599 ± 0.041 in data set [1] (setting [3]); 0.7316 ± 0.0053 in data set [1] (setting [4]); 0.645 ± 0.012 in data set [1] (setting [5]); 0.75 ± 0.0094 in data set [1] (setting [6]); 0.119 ± 0.013 in data set [1] (setting [7]); 0.141 ± 0.022 in data set [1] (setting [8]). Also, the figures for the protein stability index in data set [1] (setting [9]) and in data set [2] were 0.257 ± 0.015 and 0.232 ± 0.028, respectively.

Consider RIAIRSAVICAS, for which the protein stability index came to 0.306 ± 0.05 in data set [1] (setting [3]); 0.379 ± 0.0076 in data set [1] (setting [4]); 0.276 ± 0.028 in data set [1] (setting [5]); 0.487 ± 0.0057 in data set [1] (setting [6]); 0.101 ± 0.032 in data set [1] (setting [7]); 0.138 ± 0.038 in data set [1] (setting [8]). Moreover, the protein stability index in data set [1] (setting [9]) turned out to be 0.154 ± 0.02; in data set [2], 0.183 ± 0.028.

In the case of RIIKIRAISINL, the protein stability index in data set [1] (setting [3]) worked out at 0.575 ± 0.062; in data set [1] (setting [4]), 0.66 ± 0.065; in data set [1] (setting [5]) it was 0.523 ± 0.023; in data set [1] (setting [6]) it was 0.607 ± 0.061; in data set [1] (setting [7]), 0.454 ± 0.03; in data set [1] (setting [8]) it was 0.468 ± 0.016. The protein stability index in data set [1] (setting [9]) was found to be 0.609 ± 0.03; in data set [2] it was 0.501 ± 0.022.

On to RILKLPGHVNDV, for which the protein stability index in data set [1] (setting [3]) is 0.6842 ± 0.0067; in data set [1] (setting [4]), 0.711 ± 0.031; in data set [1] (setting [5]) it was 0.654 ± 0.043; in data set [1] (setting [6]), 0.697 ± 0.026; in data set [1] (setting [7]), 0.652 ± 0.065; in data set [1] (setting [8]), 0.65 ± 0.027. The protein stability index in data set [1] (setting [9]) stood at 0.69 ± 0.019; in data set [2] it was 0.7167 ± 0.005.

As to RIRLYWVLRRLG, the protein stability index turned out to be 0.595 ± 0.008 in data set [1] (setting [3]); 0.693 ± 0.013 in data set [1] (setting [4]); 0.571 ± 0.023 in data set [1] (setting [5]); 0.758 ± 0.0098 in data set [1] (setting [6]); 0.0772 ± 0.023 in data set [1] (setting [7]); 0.0992 ± 0.031 in data set [1] (setting [8]). In addition, the protein stability index in data set [1] (setting [9]) came to 0.129 ± 0.0085; in data set [2] it was 0.183 ± 0.0066.

As to RISGSIVVRKRS, the protein stability index worked out at 0.673 ± 0.032 in data set [1] (setting [3]); 0.738 ± 0.011 in data set [1] (setting [4]); 0.642 ± 0.015 in data set [1] (setting [5]); 0.722 ± 0.019 in data set [1] (setting [6]); 0.425 ± 0.0081 in data set [1] (setting [7]); 0.45 ± 0.033 in data set [1] (setting [8]). In addition, the protein stability index came out at 0.6333 ± 0.0061 in data set [1] (setting [9]) and 0.554 ± 0.1 in data set [2].

Turning to RLPRILVLVCLF, the protein stability index amounted to 0.231 ± 0.0089 in data set [1] (setting [3]); 0.318 ± 0.025 in data set [1] (setting [4]); 0.228 ± 0.04 in data set [1] (setting [5]); 0.383 ± 0.00011 in data set [1] (setting [6]); 0.169 ± 0.0018 in data set [1] (setting [7]); 0.163 ± 0.022 in data set [1] (setting [8]). Besides, the protein stability index is 0.25 ± 0.0094 in data set [1] (setting [9]) and 0.237 ± 0.017 in data set [2].

Turning to RLPSSNVRYWVS, the protein stability index in data set [1] (setting [3]) is 0.637 ± 0.037; in data set [1] (setting [4]), 0.729 ± 0.012; in data set [1] (setting [5]), 0.64 ± 0.012; in data set [1] (setting [6]), 0.751 ± 0.032; in data set [1] (setting [7]) it was 0.1599 ± 0.001; in data set [1] (setting [8]) it was 0.183 ± 0.012. The protein stability index worked out at 0.394 ± 0.037 in data set [1] (setting [9]) and 0.235 ± 0.035 in data set [2].

Take RNDCAYHVLQIV: the protein stability index is 0.607 ± 0.016 in data set [1] (setting [3]); 0.722 ± 0.054 in data set [1] (setting [4]); 0.646 ± 0.015 in data set [1] (setting [5]); 0.7115 ± 0.0031 in data set [1] (setting [6]); 0.181 ± 0.0022 in data set [1] (setting [7]); 0.202 ± 0.035 in data set [1] (setting [8]). The values for the protein stability index in data set [1] (setting [9]) and in data set [2] were 0.381 ± 0.0042 and 0.228 ± 0.0084, respectively.
